From paper doi:10.1101/2025.11.14.688508 (bioRxiv, 2025)

Target: the molecule itself
Assay: SEC

B1: DY-647P1-labeled recombinant human Bax single cysteine mutant (S4C, C62S, C126S) (natural protein)
chain: MDGCGEQPRGGGPTSSEQIMKTGALLLQGFIQDRAGRMGGEAPELALDPVPQDASTKKLSESLKRIGDELDSNMELQRMIAAVDTDSPREVFFRVAADMFSDGNFNWGRVVALFYFASKLVLKALSTKVPELIRTIMGWTLDFLRERLLGWIQDQGGWDGLLSYFGTPTWQTVTIFVAGVLTASLTIWKKMG
modifications: cysteine labeling with DY-647P1 (single cysteine mutant; degree of labeling ~74 %)
binding result: binds
